Data published in patent US20250346679A1 (INVOX PHARMA, published 2025).
Where two headings read alike, the source gives them in different places.

What was measured:
[1] = target: T1, human PD-L1, cell-surface (human, UniProt Q9NZQ7 19-290); assay: flow cytometry on activated primary human CD4+ T cells (carry PD-L1 and CD137); activated primary human CD4+ T cells (carry PD-L1 and little CD137)
T1 construct: also called HEK.hPD-L1; PD-L1 on MDA-MB-231, on Promega PD-L1 cells, on primary human cells
Procedure: (§1) CD137 is rapidly expressed to high levels on activated CD8⁺ T cells and also on activated CD4⁺ T cells with lower levels (Xue-Zhong Yu et al, 2013), therefore Pan T cells were stimulated for 24 hours using Dynabeads™ Human T-Activator CD3/CD28 beads (Thermo, 11132D) according to manufacturer's instructions.
(§2) Dead cells were excluded and the fluorescence in the APC channel (638 nm 660/20) was measured to show test antibody binding. The geometric Mean Fluorescence Intensity (GMFI) values were plotted vs the log concentration of antibody and the resulting curves were fitted using the log (agonist) vs response equation in GraphPad Prism.

[2] = target: T2, human CD137, cell-surface (human, UniProt Q07011 24-255); assay: cell-based or functional assay
[3] = target: T3, biotinylated hPD-L1-Avi-His (Acro Biosystems, PD1-H82E5) (human, UniProt Q9NZQ7 19-238, biotinylated); assay: SPR, mAb^2 captured on Protein A chip, antigen in flow
T3 construct: bought; also called Human PD-L1-His; not shown: Avi and His tags of the bought product
Procedure: (§3) Briefly, the anti-human CD137/PD-L1 mAb², diluted in HBS-EP buffer (GE Healthcare, BR100188) at 2 μg/ml, were injected individually on flows cell 2, 3 and 4 of a Protein A chip (GE Healthcare, 29127556) at 30 μl/min to achieve a final response of approximately 110 RU. Two different recombinant human PD-L1 antigens were used i.e. hPD-L1-His-Avi (see Example 1.3 for antigen details) and biotinylated hPD-L1-Avi-His (Acrobiosystems, PD-1-H82E5). Human and cynomolgus PD-L1-His (Acrobiosystems, PD-1-C52H4) antigens, diluted in HBS-EP buffer, were injected on flow cell 1, 2, 3 or 4 as appropriate at a concentration range of 81 nM to 0.037 nM with 3-fold dilutions for 4 min at 75 μl/min and then allowed to dissociate in buffer for 10 min. Regeneration was achieved by injecting 10 mM glycine-HCL pH1.5 (GE Healthcare, Human Antibody Capture Kit, BR00356) for 30 sec at a rate of 30 μl/min. Subtracted data (flow cell 2−flow cell 1, flow cell 3−flow cell 1, or flow cell 4−flow cell 1) were analysed using BIAevaluation 3.2 Software (GE Healthcare) to identify binding using the model 1:1 binding with mass transfer, with refractive index (RI) constant 0.

[4] = target: T4, cPD-L1-His (Acro Biosystems, PD1-C52H4) (cynomolgus, UniProt Q9NZQ7 19-238 (human entry)); assay: as above
T4 construct: bought; also called Cyno PD-L1-His; Cynomolgus PD-L1-His; not shown: His tag of the bought product
Procedure: as §3

[5] = target: T1, human PD-L1, cell-surface; assay: flow cytometry on activated primary human CD8+ T cells (carry PD-L1 and CD137); activated primary human CD8+ T cells (carry PD-L1 and little CD137)
Procedure: as §1, §2

[6] = target: T5, cynomolgus CD137, cell-surface (cynomolgus, UniProt Q07011 24-255 (human entry)); assay: cell-based or functional assay
T5 chain: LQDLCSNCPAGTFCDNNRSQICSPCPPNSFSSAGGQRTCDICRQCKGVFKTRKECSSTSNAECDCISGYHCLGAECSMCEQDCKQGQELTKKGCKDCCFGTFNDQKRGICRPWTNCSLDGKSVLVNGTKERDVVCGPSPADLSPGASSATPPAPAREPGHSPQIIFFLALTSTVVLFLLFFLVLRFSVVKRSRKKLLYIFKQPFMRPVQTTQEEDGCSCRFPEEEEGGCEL

[7] = target: T2, human CD137, cell-surface; assay: cell-based or functional assay; remark: listed apart in the source
[8] = target: T6, cynomolgus PD-L1, cell-surface (cynomolgus); assay: flow cytometry on HEK.cPD-L1
T6 construct: also called HEK.cPD-L1; HEK.cyPD-L1
Procedure: (§4) Non-specific binding was also assessed by testing binding to HEK293 parental cells lacking human PD-L1 (Flp-In T-Rex 293 cell line, Life Technologies, R780-07).
(§5) HEK293, HEK.hPD-L1 and HEK.cPD-L1 suspensions were prepared in FACS buffer (DPBS (Gibco, 14190-094) containing 0.5% BSA (Sigma, A7906)) and seeded at 1×10⁵ cell/well in 100 μl in round bottomed 96-well plates (VWR, 734-1797). […] The washed cells were resuspended in the diluted antibody mixture, incubated at 4° C. for 30 minutes, and then washed once in FACS buffer. […] Dead cells were excluded and the fluorescence in the APC channel (638 nm 660/20) was measured. The geometric mean fluorescence intensity (GMFI) values were plotted vs the log concentration of antibody and the resulting curves were fitted using the log (agonist) vs response equation in GraphPad Prism.

[9] = target: T1, human PD-L1, cell-surface; assay: cell-based or functional assay
[10] = target: T1, human PD-L1, cell-surface; assay: flow cytometry on HEK.hPD-L1
Procedure: as §4, §5

[11] = target: T2, human CD137, cell-surface; assay: cell-based or functional assay; remark: listed apart in the source
[12] = target: T1, human PD-L1, cell-surface; assay: cell-based or functional assay; remark: listed apart in the source
[13] = target: T2, human CD137, cell-surface; assay: cell-based or functional assay; remark: listed apart in the source
[14] = target: T5, cynomolgus CD137, cell-surface; assay: cell-based or functional assay
[15] = target: T1, human PD-L1, cell-surface; assay: cell-based or functional assay; remark: listed apart in the source

T1 sequence (Q9NZQ7 19-290): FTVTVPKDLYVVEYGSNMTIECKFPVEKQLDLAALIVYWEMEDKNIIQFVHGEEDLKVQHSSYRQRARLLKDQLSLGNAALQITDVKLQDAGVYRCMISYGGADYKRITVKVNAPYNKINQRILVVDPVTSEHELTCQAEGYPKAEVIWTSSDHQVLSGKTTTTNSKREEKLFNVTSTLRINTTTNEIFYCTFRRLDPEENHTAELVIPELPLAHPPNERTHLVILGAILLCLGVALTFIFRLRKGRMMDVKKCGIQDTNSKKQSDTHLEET
T3 sequence (Q9NZQ7 19-238): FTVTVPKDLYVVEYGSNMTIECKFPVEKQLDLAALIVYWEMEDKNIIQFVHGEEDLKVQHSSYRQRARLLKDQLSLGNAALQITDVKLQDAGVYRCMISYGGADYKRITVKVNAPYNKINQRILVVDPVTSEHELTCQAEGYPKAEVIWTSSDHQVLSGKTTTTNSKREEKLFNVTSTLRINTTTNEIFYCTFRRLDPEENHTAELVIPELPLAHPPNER
T4 sequence (Q9NZQ7 other isoform, or with tags, fused parts or gaps): as the sequence (Q9NZQ7 19-238) above, with A33T, A34S, S62N, R68Q, Q82R, F173L, T185A, T192I, H215L counted along it
T6 sequence (chain, as listed by the source limits assumed): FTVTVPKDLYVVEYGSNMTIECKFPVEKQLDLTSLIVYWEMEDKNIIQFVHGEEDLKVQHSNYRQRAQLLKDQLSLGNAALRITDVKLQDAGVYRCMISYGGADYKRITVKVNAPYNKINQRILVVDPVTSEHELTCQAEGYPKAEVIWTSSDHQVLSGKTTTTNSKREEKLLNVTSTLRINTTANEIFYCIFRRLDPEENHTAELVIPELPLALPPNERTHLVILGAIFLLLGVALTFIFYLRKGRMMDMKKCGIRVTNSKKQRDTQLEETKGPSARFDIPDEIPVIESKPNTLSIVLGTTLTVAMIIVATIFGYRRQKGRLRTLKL

B1: FS22-172-003-AA/E12v2 (bispecific antibody, human IgG1, kappa, L234A L235A)
heavy: EVQLVQSGAEVKRPGASVKVSCKASGYPFTSYGISWVRQAPGQGLEWMGWISAYSGGTNYAQKLQGRVTMTTDTSTSTAYMELRSLRSDDTAVYYCARDLFPTIFGVSYYYYWGQGTLVTVSSASTKGPSVFPLAPSSKSTSGGTAALGCLVKDYFPEPVTVSWNSGALTSGVHTFPAVLQSSGLYSLSSVVTVPSSSLGTQTYICNVNHKPSNTKVDKKVEPKSCDKTHTCPPCPAPEAAGGPSVFLFPPKPKDTLMISRTPEVTCVVVDVSHEDPEVKFNWYVDGVEVHNAKTKPREEQYNSTYRVVSVLTVLHQDWLNGKEYKCKVSNKALPAPIEKTISKAKGQPREPQVYTLPPSRDELPYIIPPYNQVSLTCLVKGFYPSDIAVEWESNGQPENNYKTTPPVLDSDGSFFLYSKLTVGADRWLEGNVFSCSVMHEALHNHYTQKSLSLSPG
light: DIQMTQSPSTLSASVRDRVIITCRASQSIGNRLAWYQHKPGKAPKLLIYEASTSETGVPSRFSGSGSGTDFTLTISSLQPEDFATYYCQQSYSTPYTFGQGTKLEIKRTVAAPSVFIFPPSDEQLKSGTASVVCLLNNFYPREAKVQWKVDNALQSGNSQESVTEQDSKDSTYSLSSTLTLSKADYEKHKVYACEVTHQGLSSPVTKSFNRGEC
notes: PD-L1 site in the Fab, CD137 site in the CH3, LALA; also called anti-human CD137/PD-L1 mAb^2
- EC50 [1]: 0.8 nM
- EC50 (nM), IFN-γ release, CEFT antigen recall assay (CD4+ T cell activation) [2]: 0.08 nM
- Kd [3]: 0.19 nM
- Kd [4]: 0.36 nM
- EC50 [5]: 0.9 nM
- EC50 (nM) (crosslinked), mIL-2 release, DO11.10.cCD137 with HEK.cyPD-L1 [6]: 0.06 nM
- Emax (pg/ml) (crosslinked), mIL-2 release, DO11.10.cCD137 with HEK.cyPD-L1 [6]: 11300 pg/mL
- EC50 (nM), hIL-2 release, CD8+ T cells, donor 171115A, HEK.hPD-L1 XL [7]: 0.24 nM
- EC50 (nM), hIL-2 release, CD8+ T cells, donor 171115A, MDA-MB-231 XL [7]: 0.02 nM
- EC50 (nM), hIL-2 release, CD8+ T cells, donor 171115B, HEK.hPD-L1 XL [7]: 0.31 nM
- EC50 (nM), hIL-2 release, CD8+ T cells, donor 171115B, MDA-MB-231 XL [7]: 0.02 nM
- EC50 [8]: 0.7 nM
- EC50 (nM), IFN-γ release, human MLR [9]: 0.02 nM
- Emax (pg/ml), IFN-γ release, human MLR [9]: 2630 pg/mL
- EC50 [10]: 3.7 nM
- EC50 (nM), IFN-γ release, CEF antigen recall assay (CD8+ T cell activation) [11]: 0.03 nM
- EC50 (nM), mouse IL-2 release, DO11.10 / LK35.2 PD-L1 blockade assay [12]: 1.27 nM
- EC50, IFN-γ release, human PBMC assay [13]: 0.03 nM
- EC50, IFN-γ release, cynomolgus PBMC assay [14]: 0.08 nM
- EC50 (nM), IFN-γ release, human MLR [15]: 0.07 nM
